Measurements as given in patent publication US20250026836A1.

Key:
[1] = molecular target: HLA-G1 isoform expressed on Expi293F cells (human) (UniProt P17693); test: flow cytometry on Expi293F cells transfected with HLA-G1, antibody 10 µg/ml
[2] = molecular target: HLA-G2 isoform expressed on Expi293F cells (human) (UniProt P17693); test: flow cytometry on Expi293F cells transfected with HLA-G2, antibody 10 µg/ml
[3] = molecular target: HLA-G3 isoform expressed on Expi293F cells (human) (UniProt P17693); test: flow cytometry on Expi293F cells transfected with HLA-G3, antibody 10 µg/ml
[4] = molecular target: HLA-G4 isoform expressed on Expi293F cells (human) (UniProt P17693); test: flow cytometry on Expi293F cells transfected with HLA-G4, antibody 10 µg/ml
[5] = molecular target: HLA-G4 isoform expressed on Expi293F cells (human) (UniProt P17693); test: flow cytometry on Expi293F cells transfected with HLA-G4, negative control staining
[6] = molecular target: HLA-G1 isoform expressed on Expi293F cells (human) (UniProt P17693); test: flow cytometry on Expi293F cells transfected with HLA-G1, negative control staining
[7] = molecular target: HLA-G2 isoform expressed on Expi293F cells (human) (UniProt P17693); test: flow cytometry on Expi293F cells transfected with HLA-G2, negative control staining
[8] = molecular target: HLA-G2 isoform expressed on Expi293F cells (human) (UniProt P17693); test: flow cytometry on Expi293F cells transfected with HLA-G2, negative control staining; same profile as the HLA-G2 row of FIG. 5A, drawn larger

% of the cells stained [1]	% of the cells stained [2]	% of the cells stained [3]	% of the cells stained [4]	% (positive cells) [5]	% (positive cells) [6]	% (positive cells) [7]	% (positive cells) [8]	Substance
81%	34%	67%	16%					commercial Mouse anti-HLA-G antibody 4H84 (Abcam, Mouse IgG1)
				2%	1%	1%	1%	2nd Ab (neg CTRL) (antibody)
